First the molecules themselves.
B4: CD19 (receptor, UniProt P15391 20-291, looked up)
chain: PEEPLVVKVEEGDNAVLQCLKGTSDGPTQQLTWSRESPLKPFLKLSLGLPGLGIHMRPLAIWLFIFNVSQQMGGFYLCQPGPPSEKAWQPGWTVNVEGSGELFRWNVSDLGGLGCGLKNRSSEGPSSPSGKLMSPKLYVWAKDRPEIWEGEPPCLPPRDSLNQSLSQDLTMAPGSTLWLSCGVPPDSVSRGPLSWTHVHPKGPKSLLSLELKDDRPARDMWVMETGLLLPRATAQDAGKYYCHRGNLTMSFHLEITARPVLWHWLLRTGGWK

Assay [1] deals with T1, human CD3 (human, UniProt P07766 23-126; P04234 22-105).
T1 construct: also called His-tagged human CD3; human CD3 (Acro CDD-H52W1)
Description: antigen binding kinetics; method not given.

In assay [2] the target is T2, human 4-1BB (human, UniProt Q07011 24-186, limits assumed).
T2 construct: Soluble antigen in Octet; construct not described
In words: antigen binding kinetics; method not given.

The target of assay [3] is T3, human PD-L1 (human, UniProt Q9NZQ7 19-238).
T3 construct: Soluble antigen in Octet; bought; also called human PD-L1 (Acro PD1-H5229)
Description: antigen binding kinetics; method not given.

The target in assay [4] is B4. Description: antigen binding kinetics; method not given.
Assay [5] concerns the target T1, human CD3. Description: BLI (Octet); conditions not stated. In general terms: BLI is a label-free optical method that tracks binding on a fibre tip over time.
In assay [6] the target is NKG2D ligand. Description: BLI (Octet); conditions and ligand not stated.
For assay [7], the target named is T4, SI-49P9.
T4 construct: penta-miniGNC; D1 αCD3, D2 αCD19, D3 NKG2D receptor dimer, D4 41BBL, D5 αPD-L1
In words: BLI (Octet); conditions not stated.

Assay [8] deals with T1, human CD3. Description: BLI (Octet), unstapled control mAb or Fc-scFv.

T4 sequence (chain, as listed by the source): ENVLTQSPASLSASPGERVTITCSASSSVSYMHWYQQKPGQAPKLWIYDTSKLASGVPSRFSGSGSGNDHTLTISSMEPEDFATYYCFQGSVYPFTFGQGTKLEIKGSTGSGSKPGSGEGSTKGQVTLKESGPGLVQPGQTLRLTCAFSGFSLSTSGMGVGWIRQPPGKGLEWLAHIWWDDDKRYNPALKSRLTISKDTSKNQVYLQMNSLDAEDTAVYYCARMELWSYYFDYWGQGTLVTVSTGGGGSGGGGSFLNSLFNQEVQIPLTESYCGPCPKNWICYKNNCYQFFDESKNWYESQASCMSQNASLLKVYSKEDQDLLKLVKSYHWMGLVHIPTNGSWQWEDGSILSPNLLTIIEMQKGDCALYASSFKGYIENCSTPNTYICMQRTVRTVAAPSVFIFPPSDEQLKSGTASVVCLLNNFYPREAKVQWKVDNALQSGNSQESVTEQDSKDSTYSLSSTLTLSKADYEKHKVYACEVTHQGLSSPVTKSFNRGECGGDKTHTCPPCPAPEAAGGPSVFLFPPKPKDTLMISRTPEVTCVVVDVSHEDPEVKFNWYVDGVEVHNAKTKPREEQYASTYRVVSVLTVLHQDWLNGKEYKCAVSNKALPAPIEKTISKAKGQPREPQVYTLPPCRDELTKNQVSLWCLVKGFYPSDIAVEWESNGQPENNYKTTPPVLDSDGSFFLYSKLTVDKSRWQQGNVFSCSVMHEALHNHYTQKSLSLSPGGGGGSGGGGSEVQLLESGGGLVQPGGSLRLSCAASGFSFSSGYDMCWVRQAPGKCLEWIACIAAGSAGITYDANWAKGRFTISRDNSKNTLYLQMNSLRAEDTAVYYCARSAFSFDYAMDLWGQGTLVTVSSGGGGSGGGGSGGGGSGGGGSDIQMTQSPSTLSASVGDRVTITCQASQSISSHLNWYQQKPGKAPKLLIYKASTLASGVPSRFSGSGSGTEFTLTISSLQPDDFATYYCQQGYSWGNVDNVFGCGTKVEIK

B1: SI-38P11 (other)
chain 1: QIVLSQSPAILSASPGEKVTMTCRASSSVSYIHWFQQKPGSSPKPWIYATSNLASGVPVRFSGSGSGTSYSLTISRVEAEDAATYYCQQWTSNPPTFGGGTKLTVLGGGGSGGGGSGGGGSGGGGSQVQLQQPGAELVKPGASVKMSCKASGYTFTSYNMHWVKQTPGRGLEWIGAIYPGNGDTSYNQKFKGKATLTADKSSSTAYMQLSSLTSEDSAVYYCARSTYYGGDWYFNVWGAGTTVTVSSGGGGSGGGGSEVQLVESGGGLVQPGGSLRLSCAASGFTISTNAMSWVRQAPGKGLEWIGVITGRDITYYASWAKGRFTISRDNSKNTLYLQMNSLRAEDTAVYYCARDGGSSAITSNNIWGQGTLVTVSSASTKGPSVFPLAPSSKSTSGGTAALGCLVKDYFPEPVTVSWNSGALTSGVHTFPAVLQSSGLYSLSSVVTVPSSSLGTQTYICNVNHKPSNTKVDKRVEPKSCDKTHTCPPCPAPEAAGGPSVFLFPPKPKDTLMISRTPEVTCVVVDVSHEDPEVKFNWYVDGVEVHNAKTKPREEQYNSTYRVVSVLTVLHQDWLNGKEYKCAVSNKALPAPIEKTISKAKGQPREPQVYTLPPSRDELTKNQVSLSCAVKGFYPSDIAVEWESNGQPENNYKTTPPVLDSDGSFFLVSKLTVDKSRWQQGNVFSCSVMHEALHNHYTQKSLSLSPGGGGGSGGGGSDVVMTQSPSSVSASVGDRVTITCQASQNIRTYLSWYQQKPGKAPKLLIYAAANLASGVPSRFSGSGSGTDFTLTISDLEPGDAATYYCQSTYLGTDYVGGAFGGGTKLTVLGGGGSGGGGSGGGGSGGGGSEVQLVESGGGLVQPGGSLRLSCTASGFTISSYHMQWVRQAPGKGLEYIGTISSGGNVYYASSARGRFTISRPSSKNTVDLQMNSLRAEDTAVYYCARDSGYSDPMWGQGTLVTVSS
chain 2: ENVLTQSPASLSASPGERVTITCSASSSVSYMHWYQQKPGQAPKLWIYDTSKLASGVPSRFSGSGSGNDHTLTISSMEPEDFATYYCFQGSVYPFTFGQGTKVTVLGGGGSGGGGSGGGGSGGGGSQVTLKESGPGLVQPGQTLSLTCAFSGFSLSTSGMGVGWIRQPPGKGLEWLAHIWWDDDKRYNPALKSRLTISKDTSKNQVYLQMNSLDAEDTAVYYCARMELWSYYFDYWGQGTLVTVSSGGGGSGGGGSDVVMTQSPSTLSASVGDRVTINCQASESISSWLAWYQQKPGKAPKLLIYEASKLASGVPSRFSGSGSGTEFTLTISSLQPDDFATYYCQGYFYFISRTYVNSFGGGTKVEIKRTVAAPSVFIFPPSDEQLKSGTASVVCLLNNFYPREAKVQWKVDNALQSGNSQESVTEQDSKDSTYSLSSTLTLSKADYEKHKVYACEVTHQGLSSPVTKSFNRGECGGDKTHTCPPCPAPEAAGGPSVFLFPPKPKDTLMISRTPEVTCVVVDVSHEDPEVKFNWYVDGVEVHNAKTKPREEQYNSTYRVVSVLTVLHQDWLNGKEYKCAVSNKALPAPIEKTISKAKGQPREPQVYTLPPSRDELTKNQVSLWCLVKGFYPSDIAVEWESNGQPENNYKTTPPVLDSDGSFFLYSKLTVDKSRWQQGNVFSCSVMHEALHNRFTQKSLSLSPGGGGGSGGGGSDIQMTQSPSTLSASVGDRVTITCQASQSISSHLNWYQQKPGKAPKLLIYKASTLASGVPSRFSGSGSGTEFTLTISSLQPDDFATYYCQQGYSWGNVDNVFGGGTKVTVLGGGGSGGGGSGGGGSGGGGSEVQLLESGGGLVQPGGSLSLSCAASGFSFSSGYDMCWVRQAPGKGLEWIACIAAGSAGITYDANWAKGRFTISRDNSKNTLYLQMNSLRAEDTAVYYCARSAFSFDYAMDLWGQGTLVTVSS
notes: penta-miniGNC; D1 αCD20 scFv, D2 αCD19, D3 αCD3 Fab without additional disulphide, D4 α4-1BB, D5 αPD-L1 scFv
What is called Kd is the equilibrium constant for the complex coming apart. Read a high Kd as lower affinity. B1: the dissociation constant Kd in assay [1] was 5.23 nM; in assay [2], 14.8 nM; in assay [3], 1.1 nM; in assay [4], 1.89 nM.

B2: SI-76PM1 (other)
chain 1: QIVLSQSPAILSASPGEKVTMTCRASSSVSYIHWFQQKPGSSPKPWIYATSNLASGVPVRFSGSGSGTSYSLTISRVEAEDAATYYCQQWTSNPPTFGGGTKLTVLGGGGSGGGGSGGGGSGGGGSQVQLQQPGAELVKPGASVKMSCKASGYTFTSYNMHWVKQTPGRGLEWIGAIYPGNGDTSYNQKFKGKATLTADKSSSTAYMQLSSLTSEDSAVYYCARSTYYGGDWYFNVWGAGTTVTVSSGGGGSGGGGSEVQLVESGGGLVQPGGSLRLSCAASGFTISTNAMSWVRQAPGKCLEWIGVITGRDITYYASWAKGRFTISRDNSKNTLYLQMNSLRAEDTAVYYCARDGGSSAITSNNIWGQGTLVTVSSASTKGPSVFPLAPSSKSTSGGTAALGCLVKDYFPEPVTVSWNSGALTSGVHTFPAVLQSSGLYSLSSVVTVPSSSLGTQTYICNVNHKPSNTKVDKRVEPKSCDKTHTCPPCPAPEAAGGPSVFLFPPKPKDTLMISRTPEVTCVVVDVSHEDPEVKFNWYVDGVEVHNAKTKPREEQYNSTYRVVSVLTVLHQDWLNGKEYKCAVSNKALPAPIEKTISKAKGQPREPQVYTLPPSRDELTKNQVSLSCAVKGFYPSDIAVEWESNGQPENNYKTTPPVLDSDGSFFLVSKLTVDKSRWQQGNVFSCSVMHEALHNHYTQKSLSLSPGGGGGSGGGGSDVVMTQSPSSVSASVGDRVTITCQASQNIRTYLSWYQQKPGKAPKLLIYAAANLASGVPSRFSGSGSGTDFTLTISDLEPGDAATYYCQSTYLGTDYVGGAFGGGTKLTVLGGGGSGGGGSGGGGSGGGGSEVQLVESGGGLVQPGGSLRLSCTASGFTISSYHMQWVRQAPGKGLEYIGTISSGGNVYYASSARGRFTISRPSSKNTVDLQMNSLRAEDTAVYYCARDSGYSDPMWGQGTLVTVSS
chain 2: ENVLTQSPASLSASPGERVTITCSASSSVSYMHWYQQKPGQAPKLWIYDTSKLASGVPSRFSGSGSGNDHTLTISSMEPEDFATYYCFQGSVYPFTFGQGTKVTVLGGGGSGGGGSGGGGSGGGGSQVTLKESGPGLVQPGQTLSLTCAFSGFSLSTSGMGVGWIRQPPGKGLEWLAHIWWDDDKRYNPALKSRLTISKDTSKNQVYLQMNSLDAEDTAVYYCARMELWSYYFDYWGQGTLVTVSSGGGGSGGGGSDVVMTQSPSTLSASVGDRVTINCQASESISSWLAWYQQKPGKAPKLLIYEASKLASGVPSRFSGSGSGTEFTLTISSLQPDDFATYYCQGYFYFISRTYVNSFGCGTKVEIKRTVAAPSVFIFPPSDEQLKSGTASVVCLLNNFYPREAKVQWKVDNALQSGNSQESVTEQDSKDSTYSLSSTLTLSKADYEKHKVYACEVTHQGLSSPVTKSFNRGECGGDKTHTCPPCPAPEAAGGPSVFLFPPKPKDTLMISRTPEVTCVVVDVSHEDPEVKFNWYVDGVEVHNAKTKPREEQYNSTYRVVSVLTVLHQDWLNGKEYKCAVSNKALPAPIEKTISKAKGQPREPQVYTLPPSRDELTKNQVSLWCLVKGFYPSDIAVEWESNGQPENNYKTTPPVLDSDGSFFLYSKLTVDKSRWQQGNVFSCSVMHEALHNRFTQKSLSLSPGGGGGSGGGGSDIQMTQSPSTLSASVGDRVTITCQASQSISSHLNWYQQKPGKAPKLLIYKASTLASGVPSRFSGSGSGTEFTLTISSLQPDDFATYYCQQGYSWGNVDNVFGGGTKVTVLGGGGSGGGGSGGGGSGGGGSEVQLLESGGGLVQPGGSLSLSCAASGFSFSSGYDMCWVRQAPGKGLEWIACIAAGSAGITYDANWAKGRFTISRDNSKNTLYLQMNSLRAEDTAVYYCARSAFSFDYAMDLWGQGTLVTVSS
notes: penta-miniGNC; as SI-38P11 but with an additional disulphide ('staple') in the D3 αCD3 Fab VH/VL
Consider B2, for which the Kd in assay [1] is 3.22 nM; in assay [2], 22.4 nM; in assay [3], 1.47 nM; in assay [4] it was 3.3 nM.

B3: SI-49R27 (bispecific antibody, human IgG1, kappa, L234A L235A, N297A)
chain 1: EIVMTQSPSTLSASVGDRVIITCQASESISSWLAWYQQKPGKAPKLLIYEASKLASGVPSRFSGSGSGAEFTLTISSLQPDDFATYYCQGYFYFISRTYVNSFGCGTKLTVLGSTGSGSKPGSGEGSTKGEVQLVESGGGLVQPGGSLRLSCTASGFTISTNAMSWVRQAPGKCLEWVGVITGRDITYYASWAKGRFTISRDTSKNTVYLQMNSLRAEDTAVYYCARDGGSSAITSNNIWGQGTLVTVSTGGGGSGGGGSFLNSLFNQEVQIPLTESYCGPCPKNWICYKNNCYQFFDESKNWYESQASCMSQNASLLKVYSKEDQDLLKLVKSYHWMGLVHIPTNGSWQWEDGSILSPNLLTIIEMQKGDCALYASSFKGYIENCSTPNTYICMQRTVASTKGPSVFPLAPSSKSTSGGTAALGCLVKDYFPEPVTVSWNSGALTSGVHTFPAVLQSSGLYSLSSVVTVPSSSLGTQTYICNVNHKPSNTKVDKRVEPKSCDKTHTCPPCPAPEAAGGPSVFLFPPKPKDTLMISRTPEVTCVVVDVSHEDPEVKFNWYVDGVEVHNAKTKPREEQYASTYRVVSVLTVLHQDWLNGKEYKCAVSNKALPAPIEKTISKAKGQPREPQVCTLPPSRDELTKNQVSLSCAVKGFYPSDIAVEWESNGQPENNYKTTPPVLDSDGSFFLVSKLTVDKSRWQQGNVFSCSVMHEALHNHYTQKSLSLSPG
chain 2: not shown
notes: bi-miniGNC; D1 αCD3, D3 NKG2D receptor dimer
In the case of B3, the Kd in assay [5] is 32.2 nM; in assay [6] it was 16 nM.
As for B4, binding in assay [7] was characterised by a dissociation constant (Kd) of 6.4 nM.

B5: SI-9C21 (antibody, human IgG1, kappa, V domains shown)
VH: EVQLVESGGGLVQPGGSLRLSCTASGFTISTNAMSWVRQAPGKGLEWVGVITGRDITYYASWAKGRFTISRDTSKNTVYLQMNSLRAEDTAVYYCARDGGSSAITSNNIWGQGTLVTVSS
VL: EIVMTQSPSTLSASVGDRVIITCQASESISSWLAWYQQKPGKAPKLLIYEASKLASGVPSRFSGSGSGAEFTLTISSLQPDDFATYYCQGYFYFISRTYVNSFGQGTKLTVLR
notes: monoclonal antibody control for the αCD3 domain; also called αCD3 mAb; D3 = αCD3 control
With B5, the Kd in assay [8] worked out at 26.3 nM.

These data come from patent US20230114801A1 (SYSTIMMUNE, published 2023).
